According to article PMC5389473 (Nucleic Acids Research, 2016):
Ends that are not written are not given here. * marks the point of attachment. FITC = O=C1OC2(c3ccc(O)cc3Oc3cc(O)ccc32)c2ccc(NC(=S)*)cc21

Legend:
Assay in all cases: fluorescence polarisation; fluorescein-labelled pol β NLS peptide against the concentration of the Impα construct; apparent dissociation constants; as in ref. 56
Details in all cases: both partners purified
[1] = biological target: T1, murine Importin α1 with the Importin β binding domain deleted (mImpα1ΔIBB) (mouse, UniProt P52293 70-529)
[2] = biological target: T2, full-length murine Importin α1 (mImpα1) (mouse, UniProt P52293 1-529)
[3] = biological target: T1, murine Importin α1 with the Importin β …; remark: listed apart in the source
[4] = biological target: T2, full-length murine Importin α1 (mImpα1); remark: listed apart in the source
[5] = biological target: human Importin α5, residues 66–512 (hImpα5ΔIBB) (human, UniProt P52294 66-512)
Sequence of human Importin α5, residues 66–512 (hImpα5ΔIBB) (P52294 66-512, stated change not applied): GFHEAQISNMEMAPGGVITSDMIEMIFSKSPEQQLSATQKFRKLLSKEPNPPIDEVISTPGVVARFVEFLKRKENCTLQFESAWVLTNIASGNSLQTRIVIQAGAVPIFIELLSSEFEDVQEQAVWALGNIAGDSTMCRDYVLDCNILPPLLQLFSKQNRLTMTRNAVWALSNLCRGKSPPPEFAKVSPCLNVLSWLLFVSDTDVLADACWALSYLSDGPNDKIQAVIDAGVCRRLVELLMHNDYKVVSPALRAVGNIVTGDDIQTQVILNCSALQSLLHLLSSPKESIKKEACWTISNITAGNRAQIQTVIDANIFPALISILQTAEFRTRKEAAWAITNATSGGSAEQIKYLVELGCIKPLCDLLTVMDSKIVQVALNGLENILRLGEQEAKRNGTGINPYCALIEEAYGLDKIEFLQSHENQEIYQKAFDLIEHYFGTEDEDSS

SKRKAPQETLNGGK(FITC) [fluorescein-labeled pol β NLS peptide SKRKAPQETLNGG-Lys(FITC)]
Kd [1]: 2 µM
Kd [2]: 54.3 µM
Kd [3]: 3.6 ± 0.4 µM
Kd [4]: 61.8 ± 1.7 µM
Kd [5]: 0.72 ± 0.03 µM
